We go through two molecules from paper PMC10616090, “Tailoring FPOX enzymes for enhanced stability and expanded substrate recognition” (Scientific Reports, 2023).

Data set [1] addresses Phaeosphaeria nodorum fructosyl peptide oxidase (PnFPOX), wild type (Phaeosphaeria nodorum).
Data set [2] concerns the target X02C variant of PnFPOX (derived from L3-35A through X02A) (Phaeosphaeria nodorum).
Substrate in data set [3]: CC(C)[C@H](NC[C@@]1(O)OC[C@@H](O)[C@@H](O)[C@@H]1O)C(=O)O
Description: glucosone release, o-phenylenediamine, A322, Lineweaver-Burk fit. It counts as biochemical, Parastagonospora nodorum. To be noted: 20 mM Tris HCl pH 7.4, 25 °C, 20 mM o-phenylenediamine, substrate 0.05-10 mM. From the text: glucosone release, o-phenylenediamine, A322, Lineweaver-Burk fit on PnFPOX (WT)

Where no end group is shown, it is not given here.

As to {1‑deoxyfructosyl}-VHLTPE [fructosyl-Val-His-Leu-Thr-Pro-Glu hexapeptide (F6P)], the Km for F6P in the enzymatic activity assay (glucosone release at 322 nm, F6P 0.05 to 1 mM, Lineweaver-Burk fit) in data set [1] was 810 µM; in data set [2] it was 30 µM.

B1: PnFPOX (WT) (Parastagonospora nodorum SN15) (protein)
chain: MAPSRANTSVIVVGGGGTIGSSTALHLVRSGYTPSNVTVLDAYPIPSSQSAGNDLNKIMGVSLRNPVDLQLALEARQMWNEDELFKKFFHNTGRLDCAHGEKDIADLKSGYQALVDAGLDATNEWLDSEDEILKRMPLLSRDQIKGWKAIFSKDGGWLAAAKAINAVGEYLRDQGVRFGFYGAGSFKAPLLAEGVCIGVETVDGTRYYADKVVLAAGAWSPTLVELHEQCVSKAWVYGHIQLTPEEAARYKNSPVVYNGDVGFFFEPNEHGVIKVCDEFPGFTRFKMHQPFGAKAPKRISVPRSHAKHPTDTIPDASDVSIRRAIATFMPQFKNKKMFNQAMCWCTDTADAALLICEHPEWKNFVLATGDSGHSFKLLPNIGKHVVELLEGTLADDLAHAWRWRPGSGDALKSRRSAPAKDLADMPGWNHDKPRANL
notes: C-terminal 6His tag (kept), recombinant in E. coli BL21 Star (DE3); pET15b or pET17b; FAD enzyme
The Km is the concentration of substrate that gives half-maximal velocity. The Vmax is the rate approached at saturating substrate. The term kcat denotes the maximal rate divided by the concentration of active sites. Broadly, the kcat/Km is the turnover number divided by the Michaelis constant. For B1, in data set [3], the Michaelis constant (Km) is 5930 ± 1610 µM, the maximal velocity (Vmax) was determined as 41700 µM/min, the kcat is 99.3 ± 19.9 s⁻¹ and the specificity constant (kcat/Km) came out at 16800 M⁻¹ s⁻¹.
